Measured values reported in patent US20120164110A1, “DIFFERENTIALLY METHYLATED REGIONS OF REPROGRAMMED INDUCED PLURIPOTENT STEM CELLS, METHOD AND COMPOSITIONS THEREOF” (priority 2009, published 2012).
“Also recorded” adds a separate entry of the source.

B1: Wnt3a: exogenous Wnt3a cytokine (R&D System, 1324-WN-002/CF) (protein, UniProt P56704 19-352, looked up)
Protein Wnt-3a: SYPIWWSLAVGPQYSSLGSQPILCASIPGLVPKQLRFCRNYVEIMPSVAEGIKIGIQECQHQFRGRRWNCTTVHDSLAIFGPVLDKATRESAFVHAIASAGVAFAVTRSCAEGTAAICGCSSRHQGSPGKGWKWGGCSEDIEFGGMVSREFADARENRPDARSAMNRHNNEAGRQAIASHMHLKCKCHGLSGSCEVKTCWWSQPDFRAIGDFLKDKYDSASEMVVEKHRESRGWVETLRPRYTYFKVPTERDLVYYEASPNFCEPNPETGSFGTRDRTCNVSSHGIDGCDLLCCGRGHNARAERRREKCRCVFHWCCYVSCQECTRVYDVHTCK

Legend:
[1] = system: intermediate or partial states of reprogramming; conditions: cited from earlier work
B-NP-iPSC = test: methylcellulose hematopoietic colony forming assay of EB-differentiated cells; format: cell-based, mouse; conditions: Wnt3a 40 ng/ml in EB culture media between day 2 and 4, versus non-treated EBs
Description: (§1) Differentiation of iPSC to hematopoietic and osteogenic lineages was performed as follows. Hematopoietic colony forming activity of d6 EBs differentiated from pluripotent stem cells was measured in methylcellulose medium with IL3, IL6, Epo, and SCF (M3434, StemCell Tech.) as described in Kyba et al. (Cell (109)29-37 (2002)). Hematopoietic colony type was determined on day 10. Colony identity was confirmed by leukostain analysis of cytospin preparation of the methylcellulose colonies. Osteogenic differentiation was performed by culturing pluripotent stem cells in 15 μl hanging drops (800 cells/drop) in ES differentiation media^16. Embryoid bodies (EB) from hanging drops were collected at 2 days, transferred to a 10 cm dish of non-tissue culture grade plastic with 10^−6 M of retinoic acid, and cultured for 3 days on the shaker (50 rpm) in an incubator. EBs were equally distributed among 3 wells of a 6-well tissue culture dish, and cultured in aMEM media supplemented with 10% FBS, 1× penicillin/streptomycin/glutamine (Invitrogen), 2 nM triiodothyronine, 1× insulin/transferrin/[…] (Gibco, #51300-044). The media were changed every other day. On day 11, one well of each sample was used to measure calcium concentration, osteogenic gene expression (RNA isolation), and for Alizarin Red staining. For Alizarin Red staining, cells were washed with PBS and fixed with 4% paraformaldehyde for 5 minutes at 20 C. Fixed cells were incubated for 15 minutes in Alizarin Red staining solution (Alizarin Red (Sigma, A5533) 2% in H2O, pH 4-4.3 adjusted with NH4OH, filtered with 0.45 uM membrane), and washed with Tris-HC1, pH4.0. Elemental calcium concentrations were measured by inductively coupled plasma—atomic emission spectroscopy (ICP-AES, HORIBA Jobin Yvon Activa-M) as described in Nomlru et al. (Anal. Chem. (66)3000-3004 (1994)) at the Center for Materials Science and Engineering at MIT, and three measurements were conducted to obtain mean and standard deviation values. […]

NP-iPSC = test: as above; format: cell-based, mouse; conditions: Wnt3a 40 ng/ml in EB culture media between day 2 and 4, versus non-treated EBs
Description: as §1

NSC-NP-iPSC = test: as above; format: cell-based, mouse; conditions: Wnt3a 40 ng/ml in EB culture media between day 2 and 4, versus non-treated EBs
Description: as §1

Molecule | effect on intermediate states of reprogramming [1] | hematopoietic potential (B-NP-iPSC) | blood-forming potential (NP-iPSC) | blood-forming potential (NSC-NP-iPSC)
Nc1ncn([C@@H]2O[C@H](CO)[C@@H](O)[C@H]2O)c(=O)n1 [5-AZA, 5-azacytidine] | can convert intermediate states to full pluripotency | – | – | –
B1 | – | little effect | restored; also recorded: enhanced | restored
